Legend:
[1] = target: His-tagged recombinant full-length ApoE4, 10xHIS-ApoE4(1-299) (human) (UniProt P02649); test: direct ELISA, target coated at 1 ug/ml, antibody in 3-fold dilutions from 500 ng/ml, OD 450 nm
[2] = target: recombinant C-terminal ApoE fragment G200-HIS (ApoE-G200-H299-10xHIS) (human) (UniProt P02649); test: as above
[3] = target: recombinant C-terminal ApoE fragment G200-HIS (ApoE-G200-H299-10xHIS) (human) (UniProt P02649); test: direct ELISA, target coated at 1 ug/ml, reference antibody in 3-fold dilutions from 1000 ng/ml, OD 450 nm
[4] = target: recombinant full-length ApoE4 (aa 1-299; SEQ ID NO:45; Abcam cat. no. ab50243) (human) (UniProt P02649); test: as above
Chain of recombinant full-length ApoE4 (aa 1-299; SEQ ID NO:45; Abcam cat. no. ab50243) (human) (P02649 19-317 C130R limits assumed): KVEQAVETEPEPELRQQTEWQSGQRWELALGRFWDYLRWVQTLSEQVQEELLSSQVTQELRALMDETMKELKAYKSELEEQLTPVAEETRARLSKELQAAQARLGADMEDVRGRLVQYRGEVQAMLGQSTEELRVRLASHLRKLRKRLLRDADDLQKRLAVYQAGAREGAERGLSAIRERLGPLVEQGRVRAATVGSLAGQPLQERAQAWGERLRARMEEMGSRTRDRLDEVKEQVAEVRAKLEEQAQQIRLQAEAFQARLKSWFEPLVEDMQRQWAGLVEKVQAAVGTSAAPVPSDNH

[5] = target: recombinant C-terminal ApoE fragment L198-HIS (ApoE-L198-H299-10xHIS) (human) (UniProt P02649); test: direct ELISA; proteins coated at 0.1 uM, BSA peptides at 1 ug/ml; antibody in 3-fold dilutions from 3000 ng/ml; blank reduced OD 450 nm
Chain of recombinant C-terminal ApoE fragment L198-HIS (ApoE-L198-H299-10xHIS) (human) (P02649 other isoform, or with tags, fused parts or gaps limits assumed): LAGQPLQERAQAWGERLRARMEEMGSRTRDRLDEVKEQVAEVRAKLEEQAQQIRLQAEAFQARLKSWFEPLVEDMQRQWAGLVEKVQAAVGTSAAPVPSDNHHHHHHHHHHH

[6] = target: recombinant full-length ApoE4 (aa 1-299; SEQ ID NO:45; Abcam cat. no. ab50243) (human) (UniProt P02649); test: as above
[7] = target: recombinant C-terminal ApoE fragment A199-HIS (ApoE-A199-H299-10xHIS) (human) (UniProt P02649); test: as above
Chain of recombinant C-terminal ApoE fragment A199-HIS (ApoE-A199-H299-10xHIS) (human) (P02649 other isoform, or with tags, fused parts or gaps limits assumed): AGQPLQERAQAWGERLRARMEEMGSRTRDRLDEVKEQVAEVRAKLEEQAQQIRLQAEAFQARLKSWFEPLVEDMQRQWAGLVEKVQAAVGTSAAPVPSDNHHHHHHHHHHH

[8] = target: recombinant full-length ApoE4 (aa 1-299; SEQ ID NO:45; Abcam cat. no. ab50243) (human) (UniProt P02649); test: as above; remark: listed apart in the source
[9] = target: recombinant C-terminal ApoE fragment G200-HIS (ApoE-G200-H299-10xHIS) (human) (UniProt P02649); test: direct ELISA, second protocol; proteins coated at 0.1 uM, BSA peptides at 1 ug/ml; antibody in 3-fold dilutions from 3000 ng/ml; blank reduced OD 450 nm
[10] = target: recombinant full-length ApoE4 (aa 1-299; SEQ ID NO:45; Abcam cat. no. ab50243) (human) (UniProt P02649); test: as above

Chain of recombinant C-terminal ApoE fragment G200-HIS (ApoE-G200-H299-10xHIS) (human) (P02649 other isoform, or with tags, fused parts or gaps limits assumed): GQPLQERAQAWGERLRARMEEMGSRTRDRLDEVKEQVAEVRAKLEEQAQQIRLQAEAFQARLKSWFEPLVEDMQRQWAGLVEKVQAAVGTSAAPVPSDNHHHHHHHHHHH
Chain of His-tagged recombinant full-length ApoE4, 10xHIS-ApoE4(1-299) (human) (P02649 other isoform, or with tags, fused parts or gaps limits assumed): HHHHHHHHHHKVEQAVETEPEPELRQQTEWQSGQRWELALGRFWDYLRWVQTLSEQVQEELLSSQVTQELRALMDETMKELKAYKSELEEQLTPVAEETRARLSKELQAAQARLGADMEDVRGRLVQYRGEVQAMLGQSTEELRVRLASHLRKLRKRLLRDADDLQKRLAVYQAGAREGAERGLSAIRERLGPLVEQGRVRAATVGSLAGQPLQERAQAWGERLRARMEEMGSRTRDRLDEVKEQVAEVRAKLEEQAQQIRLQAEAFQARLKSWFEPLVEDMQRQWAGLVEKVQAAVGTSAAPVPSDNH

EC50 (read off the curve) [1]: 4 ng/mL
EC50 (read off the curve) [2]: 4 ng/mL
EC50 (read off the curve) [3]: 5 ng/mL
EC50 (read off the curve) [4]: 4 ng/mL
EC50 (read off the curve) [5]: 2 ng/mL
EC50 (read off the curve) [6]: 8 ng/mL
EC50 (read off the curve) [7]: 5 ng/mL
EC50 (read off the curve) [8]: 6 ng/mL
EC50 (read off the curve) [9]: 4 ng/mL
EC50 (read off the curve) [10]: 4 ng/mL
Substance: reference anti-ApoE C-terminal antibody ApoE E-8 mouse monoclonal (Santa Cruz Biotechnology, cat. no. sc-393302)
